Values quoted from earlier work as cited in article PMC8746970, “Determination of the Peptide AWRK6 in Rat Plasma by Liquid Chromatography-Tandem Mass Spectrometry (LC-MS/MS) and Its Application to Pharmacokinetics” (Molecules, 2021).

Conditions: in vivo; cited from earlier work

Substance: glucagon-like peptide-1 [GLP-1]
- elimination half-life: ~ 2 min
